Results: patent US20100323375

Assays:
FLAG-Alcalpha = biological target: T1, FLAG-Alcalpha
T1 chain 1: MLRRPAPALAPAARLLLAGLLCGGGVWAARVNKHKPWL
T1 chain 2: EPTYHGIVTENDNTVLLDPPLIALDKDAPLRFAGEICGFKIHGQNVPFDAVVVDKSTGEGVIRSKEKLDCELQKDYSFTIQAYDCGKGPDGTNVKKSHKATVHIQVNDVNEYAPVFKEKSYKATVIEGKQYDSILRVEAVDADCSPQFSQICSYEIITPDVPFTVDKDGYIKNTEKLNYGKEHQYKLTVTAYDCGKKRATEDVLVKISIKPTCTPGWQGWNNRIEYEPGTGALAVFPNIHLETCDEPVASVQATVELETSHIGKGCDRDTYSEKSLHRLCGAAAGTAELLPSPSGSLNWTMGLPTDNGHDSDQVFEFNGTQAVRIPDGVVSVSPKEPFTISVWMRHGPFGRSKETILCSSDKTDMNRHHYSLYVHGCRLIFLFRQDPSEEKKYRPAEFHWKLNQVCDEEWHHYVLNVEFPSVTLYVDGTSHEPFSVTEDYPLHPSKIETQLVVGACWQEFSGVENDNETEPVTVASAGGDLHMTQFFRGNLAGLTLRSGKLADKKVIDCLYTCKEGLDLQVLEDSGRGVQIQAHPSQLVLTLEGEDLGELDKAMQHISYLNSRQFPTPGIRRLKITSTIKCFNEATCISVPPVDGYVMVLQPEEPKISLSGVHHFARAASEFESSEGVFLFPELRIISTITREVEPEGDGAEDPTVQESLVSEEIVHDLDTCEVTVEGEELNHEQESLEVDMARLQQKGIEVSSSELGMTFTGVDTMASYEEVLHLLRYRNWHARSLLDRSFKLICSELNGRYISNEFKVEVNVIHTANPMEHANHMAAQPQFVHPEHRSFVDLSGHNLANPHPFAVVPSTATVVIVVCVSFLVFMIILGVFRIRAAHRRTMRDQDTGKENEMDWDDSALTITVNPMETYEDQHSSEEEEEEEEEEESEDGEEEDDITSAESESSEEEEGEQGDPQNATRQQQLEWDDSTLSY

FLAG-Alcbeta = biological target: T2, FLAG-Alcbeta
T2 chain 1: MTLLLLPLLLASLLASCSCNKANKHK
T2 chain 2: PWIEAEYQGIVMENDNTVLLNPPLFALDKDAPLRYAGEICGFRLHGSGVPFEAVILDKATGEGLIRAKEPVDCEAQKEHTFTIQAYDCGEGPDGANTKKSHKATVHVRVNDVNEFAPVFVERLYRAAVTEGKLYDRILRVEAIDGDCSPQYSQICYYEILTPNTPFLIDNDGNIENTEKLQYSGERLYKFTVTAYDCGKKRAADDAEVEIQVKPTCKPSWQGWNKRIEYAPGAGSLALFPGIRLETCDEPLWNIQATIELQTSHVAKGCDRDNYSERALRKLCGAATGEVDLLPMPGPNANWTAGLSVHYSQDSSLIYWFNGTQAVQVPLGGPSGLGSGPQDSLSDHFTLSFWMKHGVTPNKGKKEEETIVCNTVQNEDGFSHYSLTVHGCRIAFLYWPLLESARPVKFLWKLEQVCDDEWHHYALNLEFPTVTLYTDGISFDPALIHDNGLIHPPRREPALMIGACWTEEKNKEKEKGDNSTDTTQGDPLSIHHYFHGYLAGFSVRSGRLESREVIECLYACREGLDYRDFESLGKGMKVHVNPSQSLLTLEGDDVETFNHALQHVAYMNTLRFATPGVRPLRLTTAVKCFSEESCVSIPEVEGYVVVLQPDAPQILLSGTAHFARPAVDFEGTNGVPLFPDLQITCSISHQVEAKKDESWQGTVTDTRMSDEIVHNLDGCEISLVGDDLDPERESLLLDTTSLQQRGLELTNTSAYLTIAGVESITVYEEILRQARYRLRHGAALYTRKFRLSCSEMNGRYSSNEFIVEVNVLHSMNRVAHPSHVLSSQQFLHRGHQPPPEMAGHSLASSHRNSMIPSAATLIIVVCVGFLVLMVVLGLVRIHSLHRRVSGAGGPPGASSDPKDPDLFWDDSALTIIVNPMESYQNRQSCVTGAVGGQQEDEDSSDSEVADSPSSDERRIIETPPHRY

FLAG-Alcgamma = biological target: T3, FLAG-Alcgamma
T3 chain 1: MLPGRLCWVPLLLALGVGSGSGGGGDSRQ
T3 chain 2: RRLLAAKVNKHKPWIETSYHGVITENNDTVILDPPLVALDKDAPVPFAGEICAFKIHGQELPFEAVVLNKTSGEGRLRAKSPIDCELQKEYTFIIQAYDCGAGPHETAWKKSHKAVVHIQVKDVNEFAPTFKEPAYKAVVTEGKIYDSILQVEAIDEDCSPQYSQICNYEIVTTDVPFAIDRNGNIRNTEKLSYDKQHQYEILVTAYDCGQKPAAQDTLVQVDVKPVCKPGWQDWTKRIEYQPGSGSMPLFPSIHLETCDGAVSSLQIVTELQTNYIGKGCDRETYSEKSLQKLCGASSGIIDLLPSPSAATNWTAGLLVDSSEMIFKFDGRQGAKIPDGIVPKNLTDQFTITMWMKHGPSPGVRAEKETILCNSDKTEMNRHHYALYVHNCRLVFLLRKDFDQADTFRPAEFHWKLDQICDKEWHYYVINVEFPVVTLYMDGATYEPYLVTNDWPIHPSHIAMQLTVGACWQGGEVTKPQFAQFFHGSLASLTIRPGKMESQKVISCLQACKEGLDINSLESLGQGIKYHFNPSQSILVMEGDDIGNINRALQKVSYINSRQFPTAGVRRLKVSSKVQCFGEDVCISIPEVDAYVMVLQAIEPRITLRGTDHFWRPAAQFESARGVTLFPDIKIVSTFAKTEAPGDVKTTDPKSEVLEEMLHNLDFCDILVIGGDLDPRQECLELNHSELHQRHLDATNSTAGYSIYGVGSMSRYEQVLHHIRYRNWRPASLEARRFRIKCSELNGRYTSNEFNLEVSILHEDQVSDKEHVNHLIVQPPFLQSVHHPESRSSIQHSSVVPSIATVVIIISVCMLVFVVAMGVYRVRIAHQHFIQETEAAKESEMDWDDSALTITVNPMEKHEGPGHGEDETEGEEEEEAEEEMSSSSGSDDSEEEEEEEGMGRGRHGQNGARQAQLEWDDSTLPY

B1: ADAM10 (endogenous, mouse embryonic fibroblasts) (protein)
chain: TTLAERNTCQLYIQTDHLFFKYYGTREAVIAQISSHVKAIDTIYQTTDFSGIRNISFMVKRIRINTTSDEKDPTNPFRFPNIGVEKFLELNSEQNHDDYCLAYVFTDRDFDDGVLGLAWVGAPSGSSGGICEKSKLYSDGKKKSLNTGIITVQNYGSHVPPKVSHITFAHEVGHNFGSPHDSGTECTPGESKNLGQKENGNYIMYARATSGDKLNNNKFSLCSIRNISQVLEKKRNNCFVESGQPICGNGMVEQGEECDCGYSDQCKDDCCFDANQPEGKKCKLKPGKQCSPSQGPCCTAQCAFKSKSEKCRDDSDCAKEGICNGFTALCPASDPKPNFTDCNRHTQVCINGQCAGSICEKYDLEECTCASSDGKDDKELCHVCCMKKMAPSTCASTGSLQWSKQFSGRTITLQPGSPCNDFRGYCDVFMRCRLVDADGPLARLKKAIFSPQLYENIAEWIVAHWWAVLLMGIALIMLMAGFIKICSVHTPSSNPKLPPPKPLPGTLKRRRPPQPIQQPPRQRPRESYQMGHMRR
FLAG-APP, P05067
Chain of FLAG-APP, P05067 (P05067 whole entry, looked up): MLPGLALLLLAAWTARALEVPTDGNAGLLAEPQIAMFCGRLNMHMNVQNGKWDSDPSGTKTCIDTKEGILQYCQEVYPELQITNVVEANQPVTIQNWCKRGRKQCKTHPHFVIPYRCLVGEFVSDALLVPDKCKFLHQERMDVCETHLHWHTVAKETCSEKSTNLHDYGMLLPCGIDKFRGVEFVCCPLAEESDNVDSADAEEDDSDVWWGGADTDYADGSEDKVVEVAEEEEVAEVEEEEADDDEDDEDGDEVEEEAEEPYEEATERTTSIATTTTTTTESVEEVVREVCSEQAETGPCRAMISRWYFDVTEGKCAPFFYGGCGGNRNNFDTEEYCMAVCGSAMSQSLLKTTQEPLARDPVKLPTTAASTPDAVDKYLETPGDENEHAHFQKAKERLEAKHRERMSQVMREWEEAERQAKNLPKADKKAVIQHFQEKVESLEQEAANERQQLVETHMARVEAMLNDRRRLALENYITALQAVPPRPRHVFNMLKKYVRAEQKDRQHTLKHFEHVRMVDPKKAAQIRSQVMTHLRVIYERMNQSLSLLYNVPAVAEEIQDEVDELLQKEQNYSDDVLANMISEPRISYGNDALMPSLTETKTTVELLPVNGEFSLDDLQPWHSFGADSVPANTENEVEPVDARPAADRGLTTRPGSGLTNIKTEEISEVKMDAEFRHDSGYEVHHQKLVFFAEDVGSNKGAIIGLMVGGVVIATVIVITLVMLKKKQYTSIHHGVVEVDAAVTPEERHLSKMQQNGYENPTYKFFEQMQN
  amount of sAPP secreted into the medium (western blot of anti-FLAG immunoprecipitate), ADAM10 (-/-) against (+/-) MEFs: ADAM (-/-) MEFs secreted sAPP (lane 2 of FIG. 1D) 40% lower than ADAM (+/-) MEFs
FLAG-Alcalpha
  amount of sAlcalpha secreted into the medium (western blot of anti-FLAG immunoprecipitate), ADAM10 (-/-) against (+/-) MEFs: The amounts of sAlcalpha, sAlcbeta, and sAlcgamma secreted by ADAM (-/-) MEFs were as low as that of APP
FLAG-Alcbeta
  amount of sAlcbeta secreted into the medium (western blot of anti-FLAG immunoprecipitate), ADAM10 (-/-) against (+/-) MEFs: The amounts of sAlcalpha, sAlcbeta, and sAlcgamma secreted by ADAM (-/-) MEFs were as low as that of APP
FLAG-Alcgamma
  amount of sAlcgamma secreted into the medium (western blot of anti-FLAG immunoprecipitate), ADAM10 (-/-) against (+/-) MEFs: The amounts of sAlcalpha, sAlcbeta, and sAlcgamma secreted by ADAM (-/-) MEFs were as low as that of APP
